Results published in paper PMC3851519 (Developmental cell, 2013).

Key:
[1] = biological target: T1, T7-SOCS6 (UniProt Q9JLY0 1-533); test: pull-down
T1 sequence (looked up): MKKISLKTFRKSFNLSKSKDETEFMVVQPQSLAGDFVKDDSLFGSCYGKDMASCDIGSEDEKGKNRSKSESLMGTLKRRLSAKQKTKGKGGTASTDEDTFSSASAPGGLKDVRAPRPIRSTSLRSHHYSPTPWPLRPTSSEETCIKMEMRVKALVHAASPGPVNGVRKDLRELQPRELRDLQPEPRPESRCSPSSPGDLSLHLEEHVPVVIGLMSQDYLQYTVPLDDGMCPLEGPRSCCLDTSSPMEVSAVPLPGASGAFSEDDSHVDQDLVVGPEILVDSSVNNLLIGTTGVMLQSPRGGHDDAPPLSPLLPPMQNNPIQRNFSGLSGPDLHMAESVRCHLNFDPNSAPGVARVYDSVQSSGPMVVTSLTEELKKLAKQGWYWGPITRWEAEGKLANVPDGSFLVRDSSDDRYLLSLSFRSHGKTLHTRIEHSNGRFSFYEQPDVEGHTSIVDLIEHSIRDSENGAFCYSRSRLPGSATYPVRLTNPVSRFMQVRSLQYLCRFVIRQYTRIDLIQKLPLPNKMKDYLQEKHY

[2] = biological target: T2, T7-SOCS7 WT (UniProt Q8VHQ2 1-579); test: pull-down
T2 sequence (looked up): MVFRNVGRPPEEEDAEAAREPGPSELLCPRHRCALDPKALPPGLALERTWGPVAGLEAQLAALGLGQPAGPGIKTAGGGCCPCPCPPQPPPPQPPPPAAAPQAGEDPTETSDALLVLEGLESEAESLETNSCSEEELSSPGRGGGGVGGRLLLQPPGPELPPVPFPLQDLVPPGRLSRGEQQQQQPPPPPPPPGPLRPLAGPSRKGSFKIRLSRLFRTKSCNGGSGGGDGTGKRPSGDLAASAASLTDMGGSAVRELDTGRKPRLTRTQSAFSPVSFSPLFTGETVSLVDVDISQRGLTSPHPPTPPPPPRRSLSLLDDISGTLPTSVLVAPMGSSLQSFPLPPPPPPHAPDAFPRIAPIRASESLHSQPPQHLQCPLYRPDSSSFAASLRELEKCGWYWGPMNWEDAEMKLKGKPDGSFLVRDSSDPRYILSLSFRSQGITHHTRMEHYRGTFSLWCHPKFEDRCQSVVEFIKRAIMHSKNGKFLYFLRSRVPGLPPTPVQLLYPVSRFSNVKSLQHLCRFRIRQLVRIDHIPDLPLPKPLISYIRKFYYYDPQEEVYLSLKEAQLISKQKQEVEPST

fold pY.Dab1 bound against SOCS4, 5 or CISH [1]: ~10 fold
fold pY.Dab1 bound against SOCS4, 5 or CISH [2]: ~10 fold
B1: tyrosine-phosphorylated Dab1-EGFP (natural protein, UniProt P97318 1-588, looked up)
chain: MSTETELQVAVKTSAKKDSRKKGQDRSEATLIKRFKGEGVRYKAKLIGIDEVSAARGDKLCQDSMMKLKGVVAGARSKGEHKQKIFLTISFGGIKIFDEKTGALQHHHAVHEISYIAKDITDHRAFGYVCGKEGNHRFVAIKTAQAAEPVILDLRDLFQLIYELKQREELEKKAQKDKQCEQAVYQTILEEDVEDPVYQYIVFEAGHEPIRDPETEENIYQVPTSQKKEGVYDVPKSQPNSQPLEDFESRFAAATPNRNLSMDFDELLEATKVSAVTQLELFGDMSTPPDITSPPTPATPGDAFLPSSSQTLPGSADVFGSMSFGTAAVPSGYVAMGAVLPSFWGQQPLVQQQIAMGAQPPVAQVIPGAQPIAWGQPGLFPATQQAWPTVAGQFPPAAFMPTQTVMPLAAAMFQGPLTPLATVPGTNDSARSSPQSDKPRQKMGKESFKDFQMVQPPPVPSRKPDQPSLTCTSEAFSSYFNKVGVAQDTDDCDDFDISQLNLTPVTSTTPSTNSPPTPAPRQSSPSKSSASHVSDPTADDIFEEGFESPSKSEEQEAPDGSQASSTSDPFGEPSGEPSGDNISPQDGS
modifications: phosphotyrosine (sites not given; phosphorylated by co-transfected Fyn)
